Results reported in US20230242922.

Assays:
Assay in all cases: cell_activity
[1] = tested on: T1, AN197 TALEN pair (synthetic construct); conditions: primary T cells, GCD
T1 sequence: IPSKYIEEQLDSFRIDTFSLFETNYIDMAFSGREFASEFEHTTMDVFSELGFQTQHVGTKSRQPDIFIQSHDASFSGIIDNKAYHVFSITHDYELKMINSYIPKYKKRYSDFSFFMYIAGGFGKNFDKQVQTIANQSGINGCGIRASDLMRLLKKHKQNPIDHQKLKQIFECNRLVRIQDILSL

[2] = tested on: T2, AN197 TALEN, purified, mPEG-5K-SH PEGylated (synthetic construct); conditions: HEK293FT
T2 sequence: T1 sequence

[3] = biological target: FokI TALEN pair (Flavobacterium okeanokoites) (UniProt P14870); conditions: by Sanger sequencing
Chain of UniProt P14870 (P14870 384-579): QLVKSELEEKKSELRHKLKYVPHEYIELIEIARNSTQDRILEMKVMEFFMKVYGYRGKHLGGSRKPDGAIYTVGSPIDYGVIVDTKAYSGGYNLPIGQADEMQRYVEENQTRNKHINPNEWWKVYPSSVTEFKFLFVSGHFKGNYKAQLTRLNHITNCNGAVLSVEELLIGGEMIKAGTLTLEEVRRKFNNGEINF

With PD-1 target the activity [1] was > 80 % editing.
In the case of AAVS1 locus TALEN target, the activity [2] is reported as < 75 % editing, the activity [3] is reported as 100 % editing and the activity [1] is reported as > 80 % editing.
For TIM3 target, the activity [1] was > 80 % editing.
With LAG3 target the activity [1] was > 80 % editing.
In the case of B2M target, the activity [1] is reported as > 80 % editing.
